Reference: patent US20250136683A1 (SINOMAB BIOSCIENCE, published 2025)

B1: SM03 (antibody, V domains shown)
VH: QVQLQESGGGLVKPGGSLKLSCAASGFAFSIYDMSWVRQTPEKRLEWVAYISSGGGTTYYPDTVKGRFTISRDNAKNTLYLQMSSLKSEDTAMYYCARHSGYGSSYGVLFAYWGQGTLVTVSS
VL: DIQLTQTTSSLSASLGDRVTISCRASQDISNYLNWYQQKPDGTVKLLIYYTSILHSGVPSRFSGSGSGTDYSLTISNLEQEDFATYFCQQGNTLPWTFGGGTKLEIKR
notes: Chimeric antibody against human CD22: murine variable regions with human constant regions; The embodiments speak of an IgG1 heavy chain and kappa light chain constant region; also called anti-CD22 antibody SM03; chimeric anti-CD22 antibody
B2: SM06 (antibody, V domains shown)
VH: EVQLVESGGGLVQPGGSLRLSCAASGFSFSIYDMSWVRQAPGKGLEWVAYISSGGGTTYYPDTVKGRFTISRDNAKNSLYLQMNSLRVEDTALYYCARHSGYGSSYGVLFAYWGQGTLVTVSS
VL: DIQLTQSPSSLSASVGDRVTISCRASQDISNYLNWYQQKPGKAPKLLIYYTSILHSGVPSRFSGSGSGTEFTLTISSLQPEDFATYFCQQGNTLPWTFGGGTKVEIKR
notes: Framework-patched (humanized) anti-CD22 antibody with human constant regions; also called framework-patched (humanized) version of SM03

Experiments:
[1] = biological target: T1, recombinant human CD22 encompassing domains 2-4 (CD22d2-4) (human, UniProt P20273 139-417); experiment: direct ELISA, plate coated with CD22d2-4
T1 construct: also called domain 2-4 of recombinant human CD22 antigen

[2] = biological target: T1, recombinant human CD22 encompassing …; experiment: ELISA, plate coated with refolded CD22d2-4, % Binding
Method: Preliminary epitope mapping was done by expressing different combinations of extracellular domains encompassing the human CD22 sequence in bacteria and the refolded recombinant proteins were tested for binding to SM03 in an ELISA assay. […] There are 6 extracellular domains for human CD22 antigen that are expressed on the surface of matured B cells. […] Briefly, the DNA sequence encoding different domain regions of human CD22 were cloned into a pET bacterial expression vector preceded with a pelB sequence (as described in Ward et al. (1989) Nature 341:544-546). The expression vectors were used to transform bacterial host cell BL21 (DE3) pLysS (Promega, Madison, WI) using standard techniques in molecular biology: expression of the transfected genes were induced by the addition of 1 mM of isopropyle β-D-thiogalactoside (IPTG). After incubating at 37° C. for 4 hours with orbital shaking at 250 rpm, the bacteria were pelleted by centrifugation at 6,000 rpm for 15 minutes. Cells were lysed in lysis buffer (50 mM Tris-HCl, pH 8 containing 0.1 M NaCl, 5 mM EDTA, 0.1% NaN₃, 0.5% TritonX-100, 100 μM PMSF and 1 mM DTT) with the aid of a glass homogenizer. After French press treatment, 2.5 mM MgCl₂ was added to chelate the EDTA, and 0.1 mg/ml Lysozyme and 0.01 mg/ml DNase were added and the mixture was incubated at room temperature for 20 minutes. […]

[3] = biological target: LRID Fab fused to the transmembrane portion of glycophorin A, on SP2/0 cells (Fab-GlycoA); experiment: cell-based or functional assay
LRID Fab fused to the transmembrane portion of glycophorin A, on SP2/0 cells (Fab-GlycoA), sequence (VH, as listed by the source, chain 1 of 2): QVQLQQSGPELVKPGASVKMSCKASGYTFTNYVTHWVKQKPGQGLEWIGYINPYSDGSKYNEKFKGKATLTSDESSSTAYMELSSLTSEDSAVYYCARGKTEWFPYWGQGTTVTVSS
LRID Fab fused to the transmembrane portion of glycophorin A, on SP2/0 cells (Fab-GlycoA), sequence (VL, as listed by the source, chain 2 of 2): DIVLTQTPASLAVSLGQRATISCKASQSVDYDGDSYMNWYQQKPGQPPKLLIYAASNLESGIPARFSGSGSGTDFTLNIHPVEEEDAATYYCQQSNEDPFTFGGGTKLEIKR

[4] = biological target: LRID Fab fused to the GPI signal sequence from decay accelerating factor (DAF), on SP2/0 cells (Fab-GPI); experiment: cell-based or functional assay
LRID Fab fused to the GPI signal sequence from decay accelerating factor (DAF), on SP2/0 cells (Fab-GPI), sequence (VH, as listed by the source, chain 1 of 2): as the sequence (VH, as listed by the source, chain 1 of 2) above
LRID Fab fused to the GPI signal sequence from decay accelerating factor (DAF), on SP2/0 cells (Fab-GPI), sequence (VL, as listed by the source, chain 2 of 2): as the sequence (VL, as listed by the source, chain 2 of 2) above

[5] = biological target: T2, LRID (murine IgG anti-idiotype antibody against the antigen binding site of SM03 and SM06); experiment: direct ELISA, plate coated with LRID
T2 construct: An scFv from a phage library, re-engineered as a murine IgG; also called anti-idiotype antibody for SM03; surrogate antigen for CD22
T2 sequence (VH, as listed by the source, chain 1 of 2): as the sequence (VH, as listed by the source, chain 1 of 2) above
T2 sequence (VL, as listed by the source, chain 2 of 2): as the sequence (VL, as listed by the source, chain 2 of 2) above

[6] = biological target: T3, human recombinant CD22 (PeproTech) (human, UniProt P20273 20-687, limits assumed); experiment: SPR (BIAcore), CD22 immobilized on CM5 chip, SM03 injected
T3 construct: Bought protein immobilized on a CM5 chip; also called recombinant human CD22 antigen; human CD22 antigen
Method: Affinity of anti-CD22 antibodies against human CD22 was performed using BIAcore (GE Healthcare Life Sciences, Piscataway, NJ) according to standard procedures. Briefly, human recombinant CD22 (20 μg/ml, PeproTech, Rocky Hill, NJ) was immobilized on carboxymethylated dextran-coated CM5 sensor chip. The chip surface was firstly activated with N-ethyl-N′-(3-[…]) carbodiimide hydrochloride (EDC) and N-hydroxysuccinimide (NHS). […] The dissociation was studied by washing with running buffer for 3 min. The chip surface was then regenerated by injection with 50 mM glycine-Cl for 60 s. Kinetic parameters including ka (association rate constant) and kd (dissociation rate constant) were estimated using the BIA evaluation software. The specific binding curves were normalized by subtracting the control curve.

Binder	EC50 [1]	EC50 (read off the curve) [2]	CMC killing of surrogate target cells, EC50 [3]	CMC killing of surrogate target cells, EC50 [4]	EC50 [5]	Ka [6]	Kd [6]	koff [6]	kon [6]
B1	0.1 µg/mL	~0.02 µg/mL	130 µg/mL	220 µg/mL	0.08 µg/mL	8.2e+08 M⁻¹	1.22 nM	0.0137 s⁻¹	1.13e+07 M⁻¹ s⁻¹
B2	0.14 µg/mL	–	–	–	0.065 µg/mL	–	–	–	–
